# Test results: publication PMC8609364, “A Selective Tether Recruits Activated Response Regulator CheB to Its Chemoreceptor Substrate” (mBio, 2021)
# B1: CheBC, catalytic domain of E. coli CheB lacking the regulatory domain and linker (domain or fragment)
# chain: LSSEKLIAIGASTGGTEAIRHVLQPLPLSSPALLITQHMPPGFTRSFADRLNKLCQIGVKEAEDGERVLPGHAYIAPGDRHMELSRSGANYQIKIHDGPAVNRHRPSVDVLFHSVAKQAGRNAVGVILTGMGNDGAAGMLAMRQAGAWTLAQNEASCVVFGMPREAINMGGVCEVVDLSQVSQQMLAKISAGQAIRI
# B2: methylesterase/deamidase CheB from E. coli, low-activity, unphosphorylated form (enzyme, UniProt P07330 1-349, looked up)
# chain: MSKIRVLSVDDSALMRQIMTEIINSHSDMEMVATAPDPLVARDLIKKFNPDVLTLDVEMPRMDGLDFLEKLMRLRPMPVVMVSSLTGKGSEVTLRALELGAIDFVTKPQLGIREGMLAYNEMIAEKVRTAAKASLAAHKPLSAPTTLKAGPLLSSEKLIAIGASTGGTEAIRHVLQPLPLSSPALLITQHMPPGFTRSFADRLNKLCQIGVKEAEDGERVLPGHAYIAPGDRHMELSRSGANYQIKIHDGPAVNRHRPSVDVLFHSVAKQAGRNAVGVILTGMGNDGAAGMLAMRQAGAWTLAQNEASCVVFGMPREAINMGGVCEVVDLSQVSQQMLAKISAGQAIRI
# notes: CheB methylesterase/deamidase of E. coli, unphosphorylated, from plasmid pCW/cheB; measured with 2 mM DTT in the buffer; also called low-activity CheB; unmodified CheB; source: E. coli K-12 RP3098 with pCW/cheB, purified
# Experiments:
# [1] = tested on: Tar4E and Tar4Q with or without pentapeptide; experiment: CheBC binding to pentapeptide-bearing and pentapeptide-lacking Tar (biolayer interferometry); set-up: species or system E. coli
# Experimental: We determined the kinetics of association and dissociation of methylesterase/deamidase CheB in its low- and high-activity form with the E. coli aspartate chemoreceptor Tar using biolayer interferometry ([22], [23]) and isolated receptor homodimers in Nanodiscs ([24], [25]). Apparent rate constants of association and dissociation were derived from global fits of time courses for binding and release (see Fig. S1 in the supplemental material). Equilibrium dissociation constants were calculated from those apparent rate constants.
# E. coli CheB and Salmonella CheB D56C/C207S/C309S and D56C/S164A/C207S/C309S were purified as described previously ([11]). CheBC (amino acids [aa] 153 to 349) was purified using the procedure of West et al. ([40]), except that Bio-Gel P-60, was not used. CheB D56C/C207S/C309S and CheB D56C/S164A/C207S/C309S were modified to create a disulfide-linked phosphoryl group on D56C following the procedure described in reference but using a 10-fold molar excess of DTNB [Ellman’s reagent, 5,5′-disulfanediylbis(2-nitrobenzoic acid)] rather than 90-fold and a 50-fold molar excess Na3SPO3 rather than 1,000-fold. The extent of modification was 59% for the former and 60% for the latter determined by reversed phase chromatography essentially as described previously ([26]) and confirmed by Nano LC-Nanospray QTQF mass spectroscopy. Membrane scaffold protein MSP1D1(-) ([41]) was purified as described previously ([25]). Tar4E L378C, Tar4Q L378C, Tar4EΔpp-6H L378C, and Tar4QΔpp-6H L378C were purified, incorporated into Nanodiscs at approximately one receptor dimer per disc, and biotinylated at L378C as described previously ([23], [42]). […] These activities were confirmed for representative samples used in our analyses. […]
# Kinetics of CheB association and dissociation with Nanodisc-embedded Tar biotinylated at L378C were determined using biolayer interferometry ([22], [23]) as measured by a BLItz instrument (ForteBio, Menlo Park, CA, USA) and described in reference. […]
# [2] = target: Tar4E L378C, E. coli aspartate chemoreceptor Tar, all-glutamyl form with carboxyl-terminal pentapeptide, homodimer in Nanodiscs (E. coli) (UniProt P07017); experiment: BLI; BLItz; biotinylated Tar homodimers in Nanodiscs held on an avidin sensor tip, CheB or CheBC in solution; 50 mM Tris-HCl pH 7.5, 10% glycerol, 5 mM MgCl2, 50 mM KCl, 2% BSA, 2 mM DTT; global fit, apparent rate constants, KD calculated from kon and koff
# [3] = target: Tar4Q L378C, E. coli aspartate chemoreceptor Tar, all-glutaminyl form with carboxyl-terminal pentapeptide, homodimer in Nanodiscs (E. coli) (UniProt P07017); experiment: as above
# TarQEQE = conditions: pulldown assay, pentapeptide at carboxyl terminus of TarQEQE in native membrane, unphosphorylated CheB; ref [21]; read-out: equilibrium dissociation constant [KD]; cited from earlier work
Molecule,binding to chemoreceptors versus CheB-P* ([1]; compared with activated phosphorylation mimic CheB-P*),preference for product form Tar4E versus substrate form Tar4Q ([1]; ratio of KD),effect of presence or absence of pentapeptide on binding ([1]; with versus without NWETF),Kd [2],Kd [3],Kd (TarQEQE)
B1,bound much more weakly to chemoreceptors than the activated phosphorylation mimic CheB-P*,approximately twofold,no significant difference in binding in the presence or absence of pentapeptide,–,–,–
B2,–,–,–,230 µM,160 µM,~150 µM
